Assay results from publication PMC3518268 (Science (New York, N.Y.), 2009).

T1: pseudokinase domain of STRADα (residues 59-431) (human, UniProt Q7RTN6 59-431)
T1 sequence (looked up): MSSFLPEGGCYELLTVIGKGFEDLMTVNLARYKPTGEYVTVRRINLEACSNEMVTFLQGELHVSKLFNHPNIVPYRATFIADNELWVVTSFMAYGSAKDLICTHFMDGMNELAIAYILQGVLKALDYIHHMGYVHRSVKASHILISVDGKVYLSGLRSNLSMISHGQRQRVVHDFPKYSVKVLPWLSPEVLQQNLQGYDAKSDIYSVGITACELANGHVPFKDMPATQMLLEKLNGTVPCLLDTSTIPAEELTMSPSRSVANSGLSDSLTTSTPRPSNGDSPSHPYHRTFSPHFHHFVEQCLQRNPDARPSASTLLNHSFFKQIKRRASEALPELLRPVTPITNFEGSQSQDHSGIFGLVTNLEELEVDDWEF

B1: LKB1 kinase domain (residues 43-347), catalytically inactive mutant Asp194Ala (domain or fragment, human, UniProt Q15831 43-347, looked up)
chain: AKLIGKYLMGDLLGEGSYGKVKEVLDSETLCRRAVKILKKKKLRRIPNGEANVKKEIQLLRRLRHKNVIQLVDVLYNEEKQKMYMVMEYCVCGMQEMLDSVPEKRFPVCQAHGYFCQLIDGLEYLHSQGIVHKDIKPGNLLLTTGGTLKISALGVAEALHPFAADDTCRTSQGSPAFQPPEIANGLDTFSGFKVDIWSAGVTLYNITTGLYPFEGDNIYKLFENIGKGSYAIPGDCGPPLSDLLKGMLEYEPAKRFSIRQIRQHSWFRKKHPPAEAPVPIPPSPDTKDRWRSMTVVPYLEDLHGA
B2: full length MO25α (natural protein, human, UniProt Q9Y376 1-341, looked up)
chain: MPFPFGKSHKSPADIVKNLKESMAVLEKQDISDKKAEKATEEVSKNLVAMKEILYGTNEKEPQTEAVAQLAQELYNSGLLSTLVADLQLIDFEGKKDVAQIFNNILRRQIGTRTPTVEYICTQQNILFMLLKGYESPEIALNCGIMLRECIRHEPLAKIILWSEQFYDFFRYVEMSTFDIASDAFATFKDLLTRHKLLSAEFLEQHYDRFFSEYEKLLHSENYVTKRQSLKLLGELLLDRHNFTIMTKYISKPENLKLMMNLLRDKSRNIQFEAFHVFKVFVANPNKTQPILDILLKNQAKLIEFLSKFQNDRTEDEQFNDEKTYLVKQIRDLKRPAQQEA

Key:
full length MO25α = biological target: B2; test: crystal structure
[1] = biological target: T1, pseudokinase domain of STRADα (residues …); test: crystal structure

| binding result (full length MO25α) | binding result [1] | Binder |
| --- | --- | --- |
| binds | binds | B1 |
|  | binds | B2 |
